Assay results from publication doi:10.1101/2022.06.09.495492, “An atypical F-actin capping protein modulates cytoskeleton behaviors crucial to colonization of Trichomonas vaginalis” (bioRxiv, 2022).

B1: His-TvFACPα (natural protein)
chain: MSESENIKIIKTFLANAPPGEYEQCTAALRSIVNDEDLINRARSETLKTWAEEECIVVDVEDHKVIICKEACQRDGIYVDPVTSSLITYDFESRIATPIGDQANMSDFAKELQEELTAYAKNAYKENAAAGVYDTNNGIVIVLRGSSISLKNFRTGKTVAKYTLSKSGSLEGKIVSIQHFFEKGNAVCQHDGDCNTTCSFGDAKSVVKAIRTFEDEWLADYKTTLEKIGTNVLFQLRRKFPYSKQKINWQQEITVGGGMKC
notes: also called His-TvFACPα wild type; Wt; source: recombinant from pET28-His-TvFACPα, purified to homogeneity (protocol of the supplier, QIAGEN)
B2: HA-TvFACPα (natural protein)
chain: B1 chain
notes: also called HA-TvFACPα wild type; source: T. vaginalis TH17 trophozoites, transgenic (Flp-HA-TvFACPα), in lysate

Legend:
GST-Tvactin [1] = molecular target: T1, GST-Tvactin (T. vaginalis, UniProt A0A8U0WPZ0 1-376); test: ELISA; solid-phase binding: 2.5 μM F-actin in F-buffer coated on a 96-well microplate; His-TvFACPα or His-△237 at 0-80 μM, 4°C overnight; anti-6×His detection, OD450; Scatchard plots; settings: both partners purified
T1 construct: The same construct stands as GST-Tvactin on beads (pull-down), as G-actin (in G-buffer) and as F-actin (polymer, in F-buffer); the assays tell these apart; No removal of GST is described; also called GST fused-α-actin; G-actin; source: polymerized to F-actin in F-buffer), purified on glutathione-conjugated sepharose beads

GST-Tvactin [2] = molecular target: T1, GST-Tvactin; test: ELISA; solid-phase binding: 2.5 μM G-actin in G-buffer coated on a 96-well microplate; His-TvFACPα or His-△237 at 0-80 μM, 4°C overnight; anti-6×His detection, OD450; Scatchard plots; settings: both partners purified
[3] = molecular target: T2, α-actin, endogenous (T. vaginalis) (T. vaginalis (endogenous in TH17 …, UniProt A0A8U0WPZ0 1-376)); test: co-sedimentation; actin biochemical fractionation of trophozoite lysates (Cytoskeleton Inc kit): 100,000× g for 1 hr, F-actin and associated proteins in the pellet, G-actin in the supernatant; western blotting; non-transgenic and transgenic TH17, flagellate and amoeboid forms, DMSO or TBB treatment; settings: partners not purified
T2 construct: α-actin of Trichomonas vaginalis detected by an anti-α-actin antibody as a 42-kDa band; In the cell fractionation it stands as F-actin in the 100,000× g pellet; also called 42-kDa α-actin; F-actin

Binder	Kd (GST-Tvactin [1]) [µM]	Kd (GST-Tvactin [2]) [µM]	co-sedimented with F-actin, fold of the endogenous form of the non-transfectant [3] [fold]
B1	8.36	4.45	
B2			~2
